Reference: paper PMC9030869, “Interplay between Alba and Cren7 Regulates Chromatin Compaction in Sulfolobus solfataricus” (Biomolecules, 2022)

Target: T1, Sulfolobus solfataricus Alba1 (S. solfataricus, UniProt P60849 1-97)
T1 construct: Alba1 of Sulfolobus solfataricus; construct obtained from Dr. Malcolm White (University of St. Andrews); It was obtained from Dr. Malcolm White; source: E. coli BL21(DE3), purified (HiTrap SPHP cation exchange, size exclusion chromatography)
T1 sequence (looked up): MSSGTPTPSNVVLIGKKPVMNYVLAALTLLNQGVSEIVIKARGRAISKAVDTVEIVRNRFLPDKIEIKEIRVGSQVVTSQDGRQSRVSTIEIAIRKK
Experiment: SEC; equimolar amounts (~100 µM) of Alba1 and Alba2 mixed, then run on a TSKgel G3000SWxl column with 150 mM NaCl in Buffer A as mobile phase
Conditions: both partners purified

binding result: binds
B1: Sulfolobus solfataricus Alba2 (natural protein, S. solfataricus, UniProt Q97ZF4 1-89, looked up)
chain: MTEKLNEIVVRKTKNVEDHVLDVIVLFNQGIDEVILKGTGREISKAVDVYNSLKDRLGDGVQLVNVQTGSEVRDRRRISYILLRLKRVY
notes: Alba2 of Sulfolobus solfataricus, homologue of Alba1; construct obtained from Dr. Malcolm White (University of St. Andrews); It was obtained from Dr. Malcolm White; source: E. coli BL21(DE3), purified (HiTrap SPHP cation exchange, size exclusion chromatography)
